Key:
Assay in all cases: BLI; […] (AHC) biosensor, […]; Octet Red; 25 °C; kinetics buffer 1 × PBS, pH 7.4; association 900 s, dissociation 900 s; […]
Details in all cases: both partners purified
[1] = molecular target: HA of A/Vietnam/1203/2004(H5N1) (Influenza A virus …, UniProt A8UDR6, strain)
[2] = molecular target: HA of A/Anhui/1/2005(H5N1) (Influenza A virus A/Anhui/1/2005(H5N1), strain)
[3] = molecular target: HA of A/Canada/720/2005(H2N2) (Influenza A virus …, UniProt Q4ZH98, strain)
[4] = molecular target: T1, HA of A/Brevig Mission/1/1918(H1N1) (Influenza A virus A/Brevig …, UniProt Q9WFX3, strain)
T1 construct: source: bought: Sino Biological Inc

HA of A/WSN/1933(H1N1) = HA of A/WSN/1933(H1N1) (Influenza A virus A/WSN/1933(H1N1), strain)
[5] = molecular target: HA of A/Brisbane/59/2007(H1N1) (Influenza A virus …, strain)
[6] = molecular target: HA of A/California/07/2009(H1N1) (Influenza A virus …, UniProt C3W5X2, strain)
[7] = molecular target: HA of A/Hong Kong/483/1997(H5N1) (Influenza A virus A/Hong …, strain)

Measured: binding result

B1: human mAb 3E1 (antibody, V domains shown)
VH: QVQLQESGPGLVKPSETLSLTCSVSGASISSYYWIWIRQPAGKGLEWIGRFYTSGSPNYNPSLRSRVTMSVDTSKNQFSLKLTSVTAADTAVYYCAREEHITFGGVIVRYWGQGTLVTVSS
VL: DIQMTQSPATLSASVGDRVSITCRASQSISSWLAWYQQKPGKAPKLLIYKASSLESGVPSRFSGSGSGSEFTLTISSLQPDDFAIYYCQQYNSYPWTFGQGTKVEIK
notes: IgG1, kappa; also called 3E1 mAb
no binding: [3]
binds: all other assays above

Reference: article PMC5477490 (Nature Communications, 2016)
